# B1: BBSome complex member BBS1 (Homo sapiens), Q8NFJ9 (parent)
# chain: MAAASSSDSDACGAESNEANSKWLDAHYDPMANIHTFSACLALADLHGDGEYKLVVGDLGPGGQQPRLKVLKGPLVMTESPLPALPAAAATFLMEQHEPRTPALALASGPCVYVYKNLRPYFKFSLPQLPPNPLEQDLWNQAKEDRIDPLTLKEMLESIRETAEEPLSIQSLRFLQLELSEMEAFVNQHKSNSIKRQTVITTMTTLKKNLADEDAVSCLVLGTENKELLVLDPEAFTILAKMSLPSVPVFLEVSGQFDVEFRLAAACRNGNIYILRRDSKHPKYCIELSAQPVGLIRVHKVLVVGSTQDSLHGFTHKGKKLWTVQMPAAILTMNLLEQHSRGLQAVMAGLANGEVRIYRDKALLNVIHTPDAVTSLCFGRYGREDNTLIMTTRGGGLIIKILKRTAVFVEGGSEVGPPPAQAMKLNVPRKTRLYVDQTLREREAGTAMHRAFQTDLYLLRLRAARAYLQALESSLSPLSTTAREPLKLHAVVQGLGPTFKLTLHLQNTSTTRPVLGLLVCFLYNEALYSLPRAFFKVPLLVPGLNYPLETFVESLSNKGISDIIKVLVLREGQSAPLLSAHVNMPGSEGLAAA
# partner: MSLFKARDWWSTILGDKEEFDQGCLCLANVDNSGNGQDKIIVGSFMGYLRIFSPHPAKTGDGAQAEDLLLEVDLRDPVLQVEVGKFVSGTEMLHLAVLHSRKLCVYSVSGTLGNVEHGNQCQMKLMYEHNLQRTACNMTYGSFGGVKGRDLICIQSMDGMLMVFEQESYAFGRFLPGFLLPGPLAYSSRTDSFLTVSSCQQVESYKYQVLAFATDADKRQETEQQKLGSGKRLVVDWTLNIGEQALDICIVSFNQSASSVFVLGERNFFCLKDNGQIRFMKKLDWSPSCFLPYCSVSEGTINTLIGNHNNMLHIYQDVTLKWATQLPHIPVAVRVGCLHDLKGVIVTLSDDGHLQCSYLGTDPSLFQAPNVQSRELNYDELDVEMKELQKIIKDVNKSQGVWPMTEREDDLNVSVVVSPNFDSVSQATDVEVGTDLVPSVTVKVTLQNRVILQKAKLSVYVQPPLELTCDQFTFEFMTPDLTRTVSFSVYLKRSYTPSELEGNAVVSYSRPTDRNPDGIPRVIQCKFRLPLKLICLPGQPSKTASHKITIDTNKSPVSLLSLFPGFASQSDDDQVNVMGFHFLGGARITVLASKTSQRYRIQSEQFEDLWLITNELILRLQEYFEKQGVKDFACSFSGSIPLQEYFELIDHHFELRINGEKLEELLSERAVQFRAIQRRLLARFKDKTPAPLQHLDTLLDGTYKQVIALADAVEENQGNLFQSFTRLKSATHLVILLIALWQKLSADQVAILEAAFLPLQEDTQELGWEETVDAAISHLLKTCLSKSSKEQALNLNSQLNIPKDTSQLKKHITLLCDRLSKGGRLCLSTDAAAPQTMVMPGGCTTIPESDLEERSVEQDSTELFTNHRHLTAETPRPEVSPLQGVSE
# B2: BBSome complex member BBS2 (Homo sapiens), Q9BXC9 (parent)
# chain: MLLPVFTLKLRHKISPRMVAIGRYDGTHPCLAAATQTGKVFIHNPHTRNQHVSASRVFQSPLESDVSLLSINQAVSCLTAGVLNPELGYDALLVGTQTNLLAYDVYNNSDLFYREVADGANAIVLGTLGDISSPLAIIGGNCALQGFNHEGSDLFWTVTGDNVNSLALCDFDGDGKKELLVGSEDFDIRVFKEDEIVAEMTETEIVTSLCPMYGSRFGYALSNGTVGVYDKTSRYWRIKSKNHAMSIHAFDLNSDGVNELITGWSNGKVDARSDRTGEVIFKDNFSSAIAGVVEGDYRMDGHIQLICCSVDGEIRGYLPGTAEMRGNLMDTSAEQDLIRELSQKKQNLLLELRNYEENAKAELASPLNEADGHRGIIPANTRLHTTLSVSLGNETQTAHTELRISTSNDTIIRAVLIFAEGIFTGESHVVHPSIHNLSSSICIPIVPPKDVPVDLHLKAFVGYRSSTQFHVFESTRQLPRFSMYALTSLDPASEPISYVNFTIAERAQRVVVWLGQNFLLPEDTHIQNAPFQVCFTSLRNGGHLHIKIKLSGEITINTDDIDLAGDIIQSMASFFAIEDLQVEADFPVYFEELRKVLVKVDEYHSVHQKLSADMADHSNLIRSLLVGAEDARLMRDMKTMKSRYMELYDLNRDLLNGYKIRCNNHTELLGNLKAVNQAIQRAGRLRVGKPKNQVITACRDAIRSNNINTLFKIMRVGTASS
# partner: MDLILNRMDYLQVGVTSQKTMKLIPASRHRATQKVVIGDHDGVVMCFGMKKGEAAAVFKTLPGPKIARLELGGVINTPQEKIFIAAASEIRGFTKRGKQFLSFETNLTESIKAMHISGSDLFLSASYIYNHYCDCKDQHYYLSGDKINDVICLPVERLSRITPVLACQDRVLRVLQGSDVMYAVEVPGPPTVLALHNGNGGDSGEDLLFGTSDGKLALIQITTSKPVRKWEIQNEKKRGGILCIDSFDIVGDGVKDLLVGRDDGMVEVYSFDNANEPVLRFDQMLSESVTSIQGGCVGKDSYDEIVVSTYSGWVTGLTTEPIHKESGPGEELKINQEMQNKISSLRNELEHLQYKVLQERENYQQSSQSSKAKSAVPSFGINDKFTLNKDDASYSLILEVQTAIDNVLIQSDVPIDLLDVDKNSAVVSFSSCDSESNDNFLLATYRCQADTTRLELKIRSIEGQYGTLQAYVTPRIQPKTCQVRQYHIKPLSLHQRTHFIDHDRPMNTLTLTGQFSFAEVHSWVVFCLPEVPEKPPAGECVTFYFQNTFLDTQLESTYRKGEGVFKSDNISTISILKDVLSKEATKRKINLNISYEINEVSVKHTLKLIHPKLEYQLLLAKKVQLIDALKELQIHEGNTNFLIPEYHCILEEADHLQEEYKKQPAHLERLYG
# Variants of: B1
# Details: with pthb1_human BBS9, Q3SYG4
row,Variant,effect of a mutation on the interaction
1,MAAASSSDSDACGAESNEANSKWLDAHYDPMANIHTFSACLALADLHGDGEYKLVVGDLGPGGQQPRLKVLKGPLVMTESPLPALPAAAATFLMEQHEPRTPALALASGPCVYVYKNLRPYFKFSLPQLPPNPLEQDLWNQAKEDRIDPLTLKEMLESIRETAEEPLSIQSLRFLQLELSEMEAFVNQHKSNSIKRQTVITTMTTLKKNLADEDAVSCLVLGTENKELLVLDPEAFTILAKMSLPSVPVFLEVSGQFDVEFRLAAACRNGNIYILRRDSKHPKYCIELSAQPVGLIRVHKVLVVGSTQDSLHGFTHKGKKLWTVQMPAAILTMNLLEQHSRGLQAVMAGLANGEVRIYRDKALLNVIHTPDAVTSLCFGRYGREDNTLIMTTRGGGLIIKILKRTAVFVEGGSEVGPPPAQAMKLNVPRKTRLYVDQTLREREAGTAMHRAFQTDLYLLRLRAARAYLQALESSLSPLSTTAREPLKLHAVVQGLGPTFKLTHHLQNTSTTRPVLGLLVCFLYNEALYSLPRAFFKVPLLVPGLNYPLETFVESLSNKGISDIIKVLVLREGQSAPLLSAHVNMPGSEGLAAA [L503H],disrupting interaction strength
2,MAAASSSDSDACGAESNEANSKWLDAHYDPMANIHTFSACLALADLHGDGEYKLVVGDLGPGGQQPRLKVLKGPLVMTESPLPALPAAAATFLMEQHEPRTPALALASGPCVYVYKNLRPYFKFSLPQLPPNPLEQDLWNQAKEDRIDPLTLKEMLESIRETAEEPLSIQSLRFLQLELSEMEAFVNQHKSNSIKRQTVITTMTTLKKNLADEDAVSCLVLGTENKELLVLDPEAFTILAKMSLPSVPVFLEVSGQFDVEFRLAAACRNGNIYILRRDSKHPKYCIELSAQPVGLIRVHKVLVVGSTQDSLHGFTHKGKKLWTVQMPAAILTMNLLEQHSRGLQAVMAGLANGEVRIYRDKALLNVIHTPDAVTSLCFGRYGREDNTLIMTTRGGGLIIKILKRTAVFVEGGSEVGPPPAQAMKLNVPRKTRLYVDQTLREREAGTAMHRAFQTDLYLLRLRAARAYLQALESSLSPLSTTAREPLKLHAVVQGLGPTFKLTLHLQNTSTTHPVLGLLVCFLYNEALYSLPRAFFKVPLLVPGLNYPLETFVESLSNKGISDIIKVLVLREGQSAPLLSAHVNMPGSEGLAAA [R512H],with no effect

# Variants of: B1
# Details: with pthb1_human BBS9, Q3SYG4
# Remark: another data set of the same source
row,Variant,effect of a mutation on the interaction
1,MAAASSSDSDACGAESNEANSKWLDAHYDPMANIHTFSACLALADLHGDGEYKLVVGDLGPGGQQPRLKVLKGPLVMTESPLPALPAAAATFLMEQHEPRTPALALASGPCVYVYKNLRPYFKFSLPQLPPNPLEQDLWNQAKEDRIDPLTLKEMLESIRETAEEPLSIQSLRFLQLELSEMEAFVNQHKSNSIKRQTVITTMTTLKKNLADEDAVSCLVLGTENKELLVLDPEAFTILAKMSLPSVPVFLEVSGQFDVEFRLAAACRNGNIYILRRDSKHPKYCIELSAQPVGLIRVHKVLVVGSTQDSLHGFTHKGKKLWTVQMPAAILTMNLLEQHSRGLQAVMAGLANGEVRIYRDKALLNVIHTPDAVTSLCFGRYGREDNTLIMTTRGGGLIIKILKRTAVFVEGGSEVGPPPAQAMKLNVPRKTRLYVDQTLREREAGTAMHRAFQTDLYLLRLRAARAYLQALESSLSPLSTTAREPLKLHAVVQGLGPTFKLTLHLQNTSTTRPVLGLLVCFLYNEALYSLPRAFFKVPLLVPGLNYPLETFVESLSNKGISDIIKVLVLREGQEAPLLSAHVNMPGSEGLAAA [S574E],with no effect
2,MAAASSSDSDACGAESNEANSKWLDAHYDPMANIHTFSACLALADLHGDGEYKLVVGDLGPGGQQPRLKVLKGPLVMTESPLPALPAAAATFLMEQHEPRTPALALASGPCVYVYKNLRPYFKFSLPQLPPNPLEQDLWNQAKEDRIDPLTLKEMLESIRETAEEPLSIQSLRFLQLELSEMEAFVNQHKSNSIKRQTVITTMTTLKKNLADEDAVSCLVLGTENKELLVLDPEAFTILAKMSLPSVPVFLEVSGQFDVEFRLAAACRNGNIYILRRDSKHPKYCIELSAQPVGLIRVHKVLVVGSTQDSLHGFTHKGKKLWTVQMPAAILTMNLLEQHSRGLQAVMAGLANGEVRIYRDKALLNVIHTPDAVTSLCFGRYGREDNTLIMTTRGGGLIIKILKRTAVFVEGGSEVGPPPAQAMKLNVPRKTRLYVDQTLRERAAGTAMHRAFQTDLYLLRLRAARAYLQALESSLSPLSTTAREPLKLHAVVQGLGPTFKLTLHLQNTSTTRPVLGLLVCFLYNEALYSLPRAFFKVPLLVPGLNYPLETFVESLSNKGISDIIKVLVLREGQSAPLLSAHVNMPGSEGLAAA [E443A],with no effect

# Variants of: B2
# Details: with BBS7, Q8IWZ6-2
row,Variant,effect of a mutation on the interaction
1,Q581K,with no effect
2,L710K,with no effect
3,R686E,disrupting interaction strength
4,Y484E,with no effect
5,H607E,with no effect
6,Y644E,disrupting interaction strength
7,D616E,with no effect
8,S465K,with no effect
9,D562K,with no effect
10,T381A,with no effect
11,T536A,with no effect
12,T536K,with no effect
13,T536E,with no effect
14,P479A,disrupting interaction strength
15,H428K,with no effect
16,R413E,with no effect
17,S704K,with no effect
18,I376F,disrupting interaction strength
19,T524A,with no effect
20,T395A,with no effect
21,S537A,with no effect
22,S537K,with no effect
23,I554A,with no effect
24,D450K,disrupting interaction strength
25,P530E,with no effect
26,E351K,with no effect

row,Variant,effect of a mutation on the interaction
1,E351A,with no effect
2,G392E,with no effect
3,D490E,with no effect
4,S405A,with no effect
5,P378A,with no effect
6,E356A,with no effect
7,N676A,with no effect
8,L352E,with no effect
9,L352A,with no effect
10,L625E,with no effect
11,E629K,with no effect
12,R464T,disrupting interaction strength
13,P690E,with no effect
14,D613K,with no effect
15,K360A,with no effect
16,K360P,disrupting interaction strength
17,P521A,with no effect
18,T406E,with no effect
19,L563A,with no effect
20,I445A,disrupting interaction strength
21,T718A,with no effect
22,G372A,with no effect
23,S365K,with no effect
24,N540K,with no effect
25,K712E,with no effect
26,L620E,with no effect

row,Variant,effect of a mutation on the interaction
1,T709E,with no effect
2,A529K,with no effect
3,F531K,with no effect
4,L416E,with no effect
5,T487K,with no effect
6,L580K,with no effect
7,Y658E,with no effect
8,G425A,with no effect
9,D330A,with no effect
10,M483A,with no effect
11,A419K,with no effect
12,N706K,with no effect
13,D700K,with no effect
14,V716A,with no effect
15,Y648K,with no effect
16,D630A,with no effect
17,G627A,with no effect
18,R703K,with no effect
19,M571A,with no effect
20,I577E,with no effect
21,R374A,with no effect
22,N557E,with no effect
23,R353E,with no effect
24,V511K,with no effect
25,V511A,with no effect
26,V510A,with no effect

row,Variant,effect of a mutation on the interaction
1,V499K,disrupting interaction strength
2,S342K,with no effect
3,S605K,with no effect
4,S407E,with no effect
5,I561C,disrupting interaction strength
6,L486E,with no effect
7,L668K,with no effect
8,V675K,with no effect
9,P447K,disrupting interaction strength
10,L455E,disrupting interaction strength
11,F518K,with no effect
12,E473A,with no effect
13,L328K,with no effect
14,K547E,disrupting interaction strength
15,T502A,with no effect
16,S570K,with no effect
17,L597K,with no effect
18,T331E,with no effect
19,W513G,disrupting interaction strength
20,L437A,with no effect
21,L437E,with no effect
22,L437K,disrupting interaction strength
23,Q396A,with no effect
24,H617K,with no effect
25,G542A,with no effect

# — IntAct's records for PubMed 29039417
